Substitutions are numbered along the chain they refer to. Blank lines part the entries; values can stand above or below the binder they belong to.
Biological target: chicken PHT1 (purified, wild type) (chicken)
Sequence (chain, as listed by the source): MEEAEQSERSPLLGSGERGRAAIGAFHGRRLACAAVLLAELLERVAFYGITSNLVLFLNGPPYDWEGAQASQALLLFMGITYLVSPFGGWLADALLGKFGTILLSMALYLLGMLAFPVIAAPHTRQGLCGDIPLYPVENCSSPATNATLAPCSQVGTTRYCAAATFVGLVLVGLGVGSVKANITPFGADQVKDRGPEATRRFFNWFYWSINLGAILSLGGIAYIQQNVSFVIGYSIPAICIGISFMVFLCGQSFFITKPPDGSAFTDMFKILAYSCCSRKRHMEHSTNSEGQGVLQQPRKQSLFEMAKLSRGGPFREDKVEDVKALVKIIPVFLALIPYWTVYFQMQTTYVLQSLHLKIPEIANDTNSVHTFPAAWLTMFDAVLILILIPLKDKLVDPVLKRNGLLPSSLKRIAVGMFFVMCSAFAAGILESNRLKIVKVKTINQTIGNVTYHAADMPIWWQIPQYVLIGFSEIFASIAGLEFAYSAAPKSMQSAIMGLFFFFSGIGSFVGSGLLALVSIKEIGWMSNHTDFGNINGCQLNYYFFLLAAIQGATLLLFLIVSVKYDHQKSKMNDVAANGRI

B2: 87 (VHH)
VHH: QVQLVESGGGLVQAGGSLRLSCAASGFPVVHLSMAWYRQAPGKEREWVAAINSFGDHTHYADSVKGRFTISRDNAKNTVYLQMNSLKPEDTAVYYCNVKDSGWFWTQYDYWGQGTQVTVSA
- binding result: binds

B4: 2 [Sybody 2] (VHH)
VHH: QVQLVESGGGLVQAGGSLRLSCAASGFPVNTRTMHWYRQAPGKEREWVAAIYSSGQNTFYADSVKGRFTISRDNAKNTVYLQMNSLKPEDTAVYYCNVKDWGNIWEYDYWGQGTQVTVSA
- binding result: binds

B8: 134 (VHH)
VHH: QVQLVESGGGLVQAGGSLRLSCAASGFPVYQTYMYWYRQAPGKEREWVAAINSTGYFTRYADSVKGRFTISRDNAKNTVYLQMNSLKPEDTAVYYCNVKDLGWWSEQYDYWGQGTQVTVSA
- binding result: binds

B12: 100 (VHH)
VHH: QVQLVESGGGLVQAGGSLRLSCAASGFPVAQRVMHWYRQAPGKEREWVAAIHSAGAQTFYADSVKGRFTISRDNAKNTVYLQMNSLKPEDTAVYYCNVKDDGKYYWLYDYWGQGTQVTVSA
- binding result: binds

B13: 31 [Sybody 31] (VHH)
VHH: QVQLVESGGGLVQAGGSLRLSCAASGFPVSQNWMWWYRQAPGKEREWVAAISSKGQTTHYADSVKGRFTISRDNAKNTVYLQMNSLKPEDTAVYYCNVKDWGAYWYSYDYWGQGTQVTVSA
- binding result: binds

B14: 48 [Sybody 48] (VHH)
VHH: QVQLVESGGGLVQAGGSLRLSCAASGFPVRWHYMYWYRQAPGKEREWVAAISSHGTYTYYADSVKGRFTISRDNAKNTVYLQMNSLKPEDTAVYYCSVKDIGRWFSKYDYWGQGTQVTVSA
- binding result: binds

B15: 3 [Sybody 3] (VHH)
VHH: QVQLVESGGGLVQAGGSLRLSCAASGFPVWAAYMFWYRQAPGKEREWVAAIGSTGWYTRYADSVKGRFTISRDNAKNTVYLQMNSLKPEDTAVYYCHVKDAGWNWWAYDYWGQGTQVTVSA
- binding result: binds

B18: 88 (VHH)
VHH: B15 VHH with A31H, A32S, F35Y, R59T, H97N, A101Q, N104I, W105H, W106K, A107Q
- binding result: binds

B21: 55 (VHH)
VHH: QVQLVESGGGLVQAGGSLRLSCAASGFPVAARWMRWYRQAPGKEREWVAAINSFGDYTEYADSVKGRFTISRDNAKNTVYLQMNSLKPEDTAVYYCNVKDYGSQWWAYDYWGQGTQVTVSA
- binding result: binds

B22: 109 (VHH)
VHH: B21 VHH with A30G, A31H, R32K, F54H, D56E, Y57F, S103W, Q104T, W105A
- binding result: binds

B27: 1 [Sybody 1] (VHH)
VHH: QVQLVESGGGLVQAGGSLRLSCAASGFPVYSRHMYWYRQAPGKEREWVAAIASQGMKTWYADSVKGRFTISRDNAKNTVYLQMNSLKPEDTAVYYCNVKDTGQWWGLYDYWGQGTQVTVSA
- binding result: binds

B32: 19 [Sybody 19] (VHH)
VHH: QVQLVESGGGSVQAGGSLRLSCAASGNIHAINYLGWFRQAPGKEREGVAALDTWVGYTYYADSVKGRFTVSLDNAKNTVYLQMNSLKPEDTALYYCAAAEWGWQGPLKMRAYEYWGQGTQVTVSA
- binding result: binds

B34: 25 [Sybody 25] (VHH)
VHH: QVQLVESGGGSVQAGGSLRLSCAASGNIWDIRYLGWFRQAPGKEREGVAALETQYGYTYYADSVKGRFTVSLDNAKNTVYLQMNSLKPEDTALYYCAAADIGYYTPLIHVGWYSYWGQGTQVTVSA
- binding result: binds

B35: 143 (VHH)
VHH: QVQLVESGGGLVQAGGSLRLSCAASGFPVYSAVMYWYRQAPGKEREWVASIGSTGQHTYYADSVKGRFTISRDNAKNTVYLQMNSLKPEDTAVYYCNVKDVGEYMYWYDYWGQGTQVTVSA
- binding result: binds

Now from value to binder:

- binding result: binds
B1: 146 (VHH)
VHH: QVQLVESGGGLVQAGGSLRLSCAASGFPVDTTNMHWYRQAPGKEREWVAAIHSSGTYTFYADSVKGRFTISRDNAKNTVYLQMNSLKPEDTAVYYCNVKDKGAHLWWYDYWGQGTQVTVSA

- binding result: binds
B3: 80 (VHH)
VHH: QVQLVESGGGSVQAGGSLRLSCAASGSISSITYLGWFRQAPGKEREGVAALFTWWGWTYYADSVKGRFTVSLDNAKNTVYLQMNSLKPEDTALYYCAAASEGMYWPLTKNHYSYWGQGTQVTVSA

- binding result: binds
B5: 116 (VHH)
VHH: B4 VHH with L11P

- binding result: binds
B6: 20 [Sybody 20] (VHH)
VHH: QVQLVESGGGSVQAGGSLRLSCAASGNIWTIRYLGWFRQAPGKEREGVAALDTASGSTYYADSVKGRFTVSLDNAKNTVYLQMNSLKPEDTALYYCAAAWWGYTVPLMWQHYYYWGQGTQVTVSA

- binding result: binds
B7: 6 [Sybody 6] (VHH)
VHH: B8 VHH with Q31A, Y33W, N52S, Y56W, F57S, R59Y, L101V, W103F, S105W, E106D

- binding result: binds
B9: 30 [Sybody 30] (VHH)
VHH: QVQLVESGGGLVQAGGSLRLSCAASGFPVKSRRMYWYRQARGKEREWVAAIYSWGATTVYADSVKGRFTISRDNAKNTVYLQMNSLKPEDTAIYYCNVKDWGSWYQYYDYWGQGTQVTVSA

- binding result: binds
B10: 66 (VHH)
VHH: QVQLVESGGGLVQAGGSLRLSCAASGFPVDTSYMYWYRQAPGKEREWVAAIWSWGQWTYYADSVKGRFTISRDNAKNTVYLQMNSLKPEDTAVYYCAVYVGQYYIGQGTQVTVSA

- binding result: binds
B11: 94 (VHH)
VHH: QVQLVESGGGLVQAGGSLRLSCAASGFPVYKASMYWYRQAPGKEREWVAAINSKGWWTEYADSVKGRFTISRDNAKNTVYLQMNSLKPEDTAVYYCNVKDYGYEQLWYDYWGQGTQVTVSA

- binding result: binds
B16: 44 [Sybody 44] (VHH)
VHH: B21 VHH with A30D, R32T, W33S, R35Y, F54T, D56W, S103W, Q104Y, W105Y

- binding result: binds
B17: 101 (VHH)
VHH: B8 VHH with Y30W, Q31A, N52G, Y56W, R59V, L101R, W104Q, S105T, E106A

- binding result: binds
B19: 140 (VHH)
VHH: B15 VHH with A32T, F35Y, Y57F, R59V, H97N, A101Y, N104F, W105E, W106Y, A107R

- binding result: binds
B20: 23 [Sybody 23] (VHH)
VHH: QVQLVESGGGSAQAGGSLRLSCAASGNIAHIYYLGWFRQAPGKEREGVAALMTFTGWTYYADSVKGRFTVSLDNAKNTVYLQMNSLKPEDTALYYCAAATHGNWNPLQSDRYQYWGQGTQVTVSA

- binding result: binds
B23: 58 (VHH)
VHH: B21 VHH with A30W, A31T, F54Y, K99R, Y101N, S103A, Q104Y, W106H, A107Y

- binding result: binds
B24: 105 (VHH)
VHH: B21 VHH with A30Y, A31I, R32K, N52S, F54N, D56E, S103H, Q104T, W105Q, A107R

- binding result: binds
B25: 57 (VHH)
VHH: B21 VHH with A30K, A31Q, R32K, F54N, K99R, S103D, W105L, W106F, A107E

- binding result: binds
B26: 104 (VHH)
VHH: B21 VHH with A30W, A31N, R32S, F54Y, Y57H, S103E, Q104W, W106N, A107N

- binding result: binds
B28: 24 [Sybody 24] (VHH)
VHH: QVQLVESGGGSVQAGGSLRLSCAASGAIERIWYLGWFRQAPGKEREGVAALITFTGHTYYADSVKGRFTVSLDNAKNTVYLQMNSLKPEDTALYYCAAAYDGWFSPLTTRRYRYWGQGTQVTVSA

- binding result: binds
B29: 111 (VHH)
VHH: QVQLVESGGGLVQAGGSLRLSCAASGFPVYSSWMRWYRQAPGKEREWVAAINSHGDYTEYADSVKGRFTISRDNAKNTVYLQMNSLKPEDTAVYSCNVKDHGYYMKHYDYWGQGTQVTVSA

- binding result: binds
B30: 121 (VHH)
VHH: B29 VHH with Y30E, S31Q, H54W, D56E, S95Y, H101Q, Y104E, M105H, K106Q, H107R

- binding result: binds
B31: 89 (VHH)
VHH: QVQLVESGGGLVQAGGSLRLSCAASGFSVNYSYMYWYRQAPGKEREWVAAISSWGWYTVYADSVKGRFTISRDNAKNTVYLQMNSLKPEDTAVYYCNVKDRGNDDSSYDYWGQGTQVTVSA

- binding result: binds
B33: 139 (VHH)
VHH: QVQLVESGGGSVQAGGSLRLSCAASGHIRWIKYLGWFRQAPGKEREGVAALYTYEGQTYYADSVKGRFTVSLDNAKNTVYLQMNSLKPEDTALYYCAAAYFGAFYPLSYDAYYYWGQGTQVTVSA
